Our source for the Km, kcat and kcat/Km values is PMC10251306.

Substrate in the data set: O=P(O)(O)OC[C@H]1O[C@H](OP(=O)(O)O)[C@H](O)[C@@H](O)[C@@H]1O
The data set can be described thus: phosphatase activity, BioMol Green phosphate assay. The class given is biochemical, Homo sapiens. To be noted: without IMP, 100 mM Hepes pH 7.2, 2 mM MgCl2, 2 mM β-mercaptoethanol.

B1: PMM1 (α-PMM1) (Homo sapiens) (protein)
chain: MAVTAQAARRKERVLCLFDVDGTLTPARQKIDPEVAAFLQKLRSRVQIGVVGGSDYCKIAEQLGDGDEVIEKFDYVFAENGTVQYKHGRLLSKQTIQNHLGEELLQDLINFCLSYMALLRLPKKRGTFIEFRNGMLNISPIGRSCTLEERIEFSELDKKEKIREKFVEALKTEFAGKGLRFSRGGMISFDVFPEGWDKRYCLDSLDQDSFDTIHFFGNETSPGGNDFEIFADPRTVGHSVVSPQDTVQRCREIFFPETAHEA
What is called Km is the substrate concentration at which the rate is half of its maximum. A word on the kcat: it is the number of substrate molecules converted per active site and unit of time at saturation. By kcat/Km is commonly meant the second-order rate constant that governs catalysis at low substrate concentration. As to B1, the Km was 18 ± 3.4 µM, the kcat is 0.018 ± 0.0012 s⁻¹ and the kcat/Km was 1000 M⁻¹ s⁻¹.
